Results reported in the DeepSol protein solubility set.

Experiment: soluble on expression in E. coli; label from the status in PepcDB or PDB records

Soluble on expression in E. coli, not soluble:
GPGSMPADEAQAPTQTEVYDRLKWNGWGVEDVQMQIDDENPLWVRHVDGKPIKNLLEFLYQEISGGVGPKEIPPLSPSIPLEKALAKLNKANINEAFMKDISAVLEKSQIRPDGKSRLCHIAGKNYRDLWRVRKGMVEHAPDCILLPNSHKDCVEIMRLAHKHNVVVIPFGGGTNVTGGVEADPFERARMIISVDMRRMNRMISIDRESRLATFETGVLGPDLDAQLFRHGFMLGHDPDSYIYSTLGGWIGARGSGAMSNQYGDIEDMVVAVKVATPTGIIETPTTSRTCGVDLNGLFIGSEGSFGIITEATIKLETIPETKLYEGYLFPTFEAGFSAFYTCTAKGIHPCTMRLYDEDDFRMSMAMSTTKHSFFQRLVSMGVKSFLERYRGWNLRRISLVIVGFEGTPDRVKFQRSETAAVFKQYGGVGVGRSAGATWQDKKYDLPYIRDFALSLSHWADVFETSVLYSQAIPCWRAVKAAVRQVWKEHGHRGWIGCHTAHQYKYGCCLYFTFASAQKDDMDMKIFLAIKKRATEAMLAHTGNLTHHHGIGYEHVPWMSRYMGPDALDLLFAVKQKVDPKNICNPGKLLPSPPRENESAAALKARQQRELMFDKMGVPGAVASHI
GPGSMPPSHTLLNRRGQQFSSRMHVGAKRKRVEDNASPVSSLYRPLCRGLSTRGSGASAVSCPSVVVILEKAGLLLGREGVVDAYDRAGSTTIANASLRDVRPDIVHQCLLALFDSGLAQEQRQLRVFINLFSRGGRTVEVSPSLRPPRTLRRFKGLVAALLRDGVVRSQDGEVLLQVLPGSLAPVLPYGAEVIGLTNAHSAPVRTPTQLARAALENPVDDKLQGGLKGVAGFFCICCSEDGSLDGVDYVTQQVCLSAYPMTAHVMCSRLCEGFSRAAATGNR
GPGSMPVEREVITLAFGNYSSLVAAQWANGTSHYDAHHSTLYSECRSADVLGGGSSGNGRVRVPRLLLLDAPYASAFDDIDVWARKYKDDAKIGEEGDAAYNPSEASPSPVHRGDATEEKDHLFASVVKAVQRHVFEQHGLDDDDSHGGNDDAGGADDAQNDDGEDADAHLLDEDEEDDVSKNAGRRGSATIPHSRAQRQARLKRKLFDEHNTTIPWWQYITTGLGPNSVTSVKPLQHVDAAGDLPALHSFGYGLAYLRDGGRSSEVVDLNDALRRNLEAADQLQGIQCFTDGDGLFGGAAANVLEQLWEDAGPKTPVVQACSFARLPALVADPAYRAEVAFRERRMDEVALNQLLATLHLSRHTSAVYIPVPLSDWDVLFKGAATAASPTEAPPWLQDERATAQLLAAVIDTALYGLRDGSRASGVSSQGPQWYMDEWCRVVRPAPSLRVAAAMGALPQSVSASSELWEFLQANPLLPDAPQLDERMVRANDSAEDDASSGQARQQAKFFPLTHTMSTYSTAHTAGQVLGHVASLRGAGCLPATVYPAREAMLRYALPLRTSTYLPLVTEVSYPISDTFPTELLFADPAAMAKVPGGASGSGGSEGITSLRRVLQSVDVGAHVLSTYATAPMLHDISTKAQAALRNKMDRYCDAYVMEKDDWREALDEGLALFDDYNHAPLSDAQDGGGSDGDDY
GPGSMPVPSYWRMACRSYQFTICATSYLLRWRAPAVTQGSGALVKLPHLVRGARLQRGLLVTDAMIMKLGLVDDFIDEMKKQGTELAIYKDVLPNPTIDMVEEASVLYRKNRCDYLVAVGGGSVMDCAKLIGVRQARPRTPLPYMRGLLRVLWPLPPLIAVPTTAGTGSECTIAAVVSDPAKKDKLVVMDPFLTPSHCVLDPALTLTLPKFVTATAGMDALTHVVEAYTNVFHYRTVDKAALRAMELLAKYLPCAYKDGSNLEAREKMLHASYLAGLSFTRAGVGNVHAAAHAVGGLYNAPHGYVNAVILPHVLDMYGSAAHKSLARLAEAANIVGANDAEKAVNFISWVREMNAQMQIPTTLGAGDSRWAPQEEDIPFLVKHAVTEANPFYAVPVIFGEEEMTELFRRVM
GPGSMRNYNNFNRVWKAPRRPFEKERLDREMKLCGQYGLRCKREIWRVNMTLSKMRRTARLLLTLPENHPRRLLEGSAIMRRCHEYGFLDEEKDKLDYVLSLTVPDILERRLQTIVFKAGLAKSVHHARVLIQQRHIAVAKQIVTIPSFIVRVSSERHIAFADASPFGNGRAGRVKRVRAKAAKRHAGGGDDDE
